Among the data in article PMC9482650, “Quantitative fragmentomics allow affinity mapping of interactomes” (Nature Communications, 2022) are pKd values, retold here.

Some targets named below: PDLIM1, O00151; FRMPD2_3, Q68DX3; Inadl_5, Q8NI35; DLG4_2, P78352; Inadl_3, Q8NI35; TJP1_3, Q07157; DLG1_2, Q12959; LIMK2, P53671.
Experiment in all cases: holdup assay
Holding throughout (parameters): key: below the threshold = too weak to quantify, mostly under pKd 3.1 to 4

In the next experiment the target is T1, RADIL, Q96JH8.
T1 sequence (Q96JH8 971-1071, limits assumed, looked up): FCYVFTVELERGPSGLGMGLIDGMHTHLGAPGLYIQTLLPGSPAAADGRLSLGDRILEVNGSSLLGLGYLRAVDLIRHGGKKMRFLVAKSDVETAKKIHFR

Another experiment has as its target T2, SNTG1, Q9NSN8.
T2 sequence (Q9NSN8 52-150, limits assumed, looked up): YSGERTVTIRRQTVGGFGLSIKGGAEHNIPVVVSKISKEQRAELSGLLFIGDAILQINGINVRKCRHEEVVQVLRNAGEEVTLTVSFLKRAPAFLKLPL

For a further experiment, the target named is T3, MPP6, Q9NZW5.
T3 sequence (Q9NZW5 125-219, limits assumed, looked up): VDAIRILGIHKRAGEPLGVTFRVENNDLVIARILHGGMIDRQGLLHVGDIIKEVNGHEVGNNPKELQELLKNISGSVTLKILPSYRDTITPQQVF

The next experiment addresses T4, DVL3, Q92997.
T4 sequence (Q92997 244-331, limits assumed, looked up): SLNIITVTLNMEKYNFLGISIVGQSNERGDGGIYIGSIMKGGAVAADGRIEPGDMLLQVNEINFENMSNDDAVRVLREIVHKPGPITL

For the next experiment, the target named is T5, DLG3_2, Q92796.
T5 sequence (Q92796 221-321, limits assumed, looked up): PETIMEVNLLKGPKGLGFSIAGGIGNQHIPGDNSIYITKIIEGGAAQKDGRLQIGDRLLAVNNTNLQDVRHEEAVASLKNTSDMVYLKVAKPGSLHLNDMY

In another experiment the target is T6, NHERF3_1, Q5T2W1.
T6 sequence (Q5T2W1 4-100, limits assumed, looked up): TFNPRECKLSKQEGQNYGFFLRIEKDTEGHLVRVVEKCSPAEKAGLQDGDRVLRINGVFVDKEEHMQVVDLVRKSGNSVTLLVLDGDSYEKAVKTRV

A further experiment deals with T7, HTRA4, P83105.
T7 sequence (P83105 378-476, limits assumed, looked up): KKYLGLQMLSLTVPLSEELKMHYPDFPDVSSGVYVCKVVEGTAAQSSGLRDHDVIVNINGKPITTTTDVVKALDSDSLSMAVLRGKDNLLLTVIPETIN

A further experiment deals with T8, TIAM2, Q8IVF5.
T8 sequence (Q8IVF5 885-986, limits assumed, looked up): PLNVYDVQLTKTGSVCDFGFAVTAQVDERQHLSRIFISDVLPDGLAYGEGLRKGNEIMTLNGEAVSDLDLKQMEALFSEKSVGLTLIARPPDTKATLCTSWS

For another experiment, the target named is T9, LNX2_3, Q8N448.
T9 sequence (Q8N448 463-564, limits assumed, looked up): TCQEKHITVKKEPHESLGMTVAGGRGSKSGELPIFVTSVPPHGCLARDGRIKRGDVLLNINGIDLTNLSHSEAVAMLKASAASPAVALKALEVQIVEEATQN

Another experiment concerns the target T10, SNTB1, Q13884.
T10 sequence (Q13884 107-205, limits assumed, looked up): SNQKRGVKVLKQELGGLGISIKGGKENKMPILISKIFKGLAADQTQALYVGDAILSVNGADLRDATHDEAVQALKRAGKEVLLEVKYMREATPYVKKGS

The target in a further experiment is T11, ARHGAP21, Q5T5U3.
T11 sequence (Q5T5U3 45-169, limits assumed, looked up): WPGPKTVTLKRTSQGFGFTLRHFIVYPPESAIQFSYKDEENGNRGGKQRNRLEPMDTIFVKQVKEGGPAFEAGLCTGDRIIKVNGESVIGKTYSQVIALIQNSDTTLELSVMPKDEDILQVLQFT

A further experiment concerns the target T12, PDZD2_2, O15018.
T12 sequence (O15018 329-429, limits assumed, looked up): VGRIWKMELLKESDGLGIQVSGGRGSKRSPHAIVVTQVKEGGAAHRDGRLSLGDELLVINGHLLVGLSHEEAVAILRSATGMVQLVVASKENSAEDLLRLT

The target in the next experiment is T13, APBA2_2, Q99767.
T13 sequence (Q99767 654-744, limits assumed, looked up): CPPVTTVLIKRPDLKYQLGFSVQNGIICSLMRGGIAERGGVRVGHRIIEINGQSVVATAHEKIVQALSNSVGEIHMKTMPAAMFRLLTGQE

The target of the next experiment is T14, RAPGEF6, Q8TEU7.
T14 sequence (Q8TEU7 525-625, limits assumed, looked up): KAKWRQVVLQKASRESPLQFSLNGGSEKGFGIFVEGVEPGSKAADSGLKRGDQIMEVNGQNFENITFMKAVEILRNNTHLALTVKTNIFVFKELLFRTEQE

The mark [1] stands for this setting: plain residues with an end cap or a label only (N-terminal biotin on a linker: ado-ado).
Where [2] appears, read: modified: phospho on T at position -2 from the C-terminal residue.

DLG1_2, Q12959, sequence (Q12959 314-412): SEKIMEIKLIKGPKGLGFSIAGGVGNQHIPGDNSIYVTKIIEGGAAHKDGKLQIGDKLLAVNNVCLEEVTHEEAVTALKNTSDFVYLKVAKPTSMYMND
FRMPD2_3, Q68DX3, sequence (Q68DX3 1073-1166): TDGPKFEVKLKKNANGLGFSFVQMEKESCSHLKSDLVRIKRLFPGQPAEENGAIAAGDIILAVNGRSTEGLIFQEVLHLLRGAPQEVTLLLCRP
Inadl_3, Q8NI35, sequence (Q8NI35 359-469): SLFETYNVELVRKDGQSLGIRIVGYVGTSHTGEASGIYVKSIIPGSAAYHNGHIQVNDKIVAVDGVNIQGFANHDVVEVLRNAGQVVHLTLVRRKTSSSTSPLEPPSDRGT
TJP1_3, Q07157, sequence (Q07157 416-512): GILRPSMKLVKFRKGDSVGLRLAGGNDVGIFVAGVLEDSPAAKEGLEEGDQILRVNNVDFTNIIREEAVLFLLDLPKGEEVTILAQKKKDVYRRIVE
LIMK2, P53671, sequence (P53671 143-248): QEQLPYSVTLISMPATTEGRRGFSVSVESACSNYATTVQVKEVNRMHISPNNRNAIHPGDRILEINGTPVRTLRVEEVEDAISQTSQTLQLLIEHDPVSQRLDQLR
DLG4_2, P78352, sequence (P78352 155-259): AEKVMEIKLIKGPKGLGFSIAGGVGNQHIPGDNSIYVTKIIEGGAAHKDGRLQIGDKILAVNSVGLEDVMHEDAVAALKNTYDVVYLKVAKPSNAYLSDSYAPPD
Inadl_5, Q8NI35, sequence (Q8NI35 673-780): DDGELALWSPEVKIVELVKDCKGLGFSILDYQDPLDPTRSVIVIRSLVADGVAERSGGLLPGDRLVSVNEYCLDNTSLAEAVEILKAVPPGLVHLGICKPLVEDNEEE
PDLIM1, O00151, sequence (O00151 1-87): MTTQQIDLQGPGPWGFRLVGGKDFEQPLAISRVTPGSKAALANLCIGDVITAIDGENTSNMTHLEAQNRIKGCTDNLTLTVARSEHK

Take TKEIPNCTSV [SORCS3, Q9UPU3]: the pKd (commonly the negative decadic logarithm of the Kd, by convention in mol/L) in the experiment with RADIL, Q96JH8 (setting [1]) is 4.05; with SNTG1, Q9NSN8 (setting [1]) it was 4; in the experiment with MPP6, Q9NZW5 (setting [1]), “below the threshold”; in the experiment with PDLIM1, O00151 (setting [1]), “below the threshold”; with DVL3, Q92997 (setting [1]), “below the threshold”; with FRMPD2_3, Q68DX3 (setting [1]), “below the threshold”. Moreover, the pKd with DLG3_2, Q92796 (setting [1]) was 4.22; with NHERF3_1, Q5T2W1 (setting [1]), 4.36; in the experiment with Inadl_5, Q8NI35 (setting [1]) it was “below the threshold”; in the experiment with HTRA4, P83105 (setting [1]), 4.44; in the experiment with TIAM2, Q8IVF5 (setting [1]), “below the threshold”; with DLG4_2, P78352 (setting [1]), 4.28. Moreover, the pKd result is “below the threshold” with Inadl_3, Q8NI35 (setting [1]); “below the threshold” in the experiment with TJP1_3, Q07157 (setting [1]); “below the threshold” with LNX2_3, Q8N448 (setting [1]); 4.25 with SNTB1, Q13884 (setting [1]); 3.86 with ARHGAP21, Q5T5U3 (setting [1]); 4.72 with PDZD2_2, O15018 (setting [1]). The pKd in the experiment with DLG1_2, Q12959 (setting [1]) is 4.43; with APBA2_2, Q99767 (setting [1]) it was “below the threshold”; with RAPGEF6, Q8TEU7 (setting [1]), “below the threshold”; in the experiment with LIMK2, P53671 (setting [1]) it was “below the threshold”.

Take DYSNLRETDI [ADRA1D, P25100]: the negative-log Kd (pKd) entry was “below the threshold” with RADIL, Q96JH8 (setting [1]); 5.55 with SNTG1, Q9NSN8 (setting [1]); 3.63 in the experiment with MPP6, Q9NZW5 (setting [1]); “below the threshold” in the experiment with PDLIM1, O00151 (setting [1]); “below the threshold” with DVL3, Q92997 (setting [1]); “below the threshold” with FRMPD2_3, Q68DX3 (setting [1]). Also, the negative logarithm of the Kd (pKd) with DLG3_2, Q92796 (setting [1]) is 4.39; with NHERF3_1, Q5T2W1 (setting [1]), “below the threshold”; in the experiment with Inadl_5, Q8NI35 (setting [1]) it was “below the threshold”; with HTRA4, P83105 (setting [1]) it was 3.75; in the experiment with TIAM2, Q8IVF5 (setting [1]), “below the threshold”; with DLG4_2, P78352 (setting [1]) it was 4.54. Moreover, the pKd was 3.84 with Inadl_3, Q8NI35 (setting [1]); “below the threshold” with TJP1_3, Q07157 (setting [1]); “below the threshold” with LNX2_3, Q8N448 (setting [1]); 5.57 in the experiment with SNTB1, Q13884 (setting [1]); 3.98 with ARHGAP21, Q5T5U3 (setting [1]); 4.18 with PDZD2_2, O15018 (setting [1]). The pKd is 4.74 with DLG1_2, Q12959 (setting [1]); “below the threshold” with APBA2_2, Q99767 (setting [1]); “below the threshold” with RAPGEF6, Q8TEU7 (setting [1]); “below the threshold” with LIMK2, P53671 (setting [1]).

As to QLKSGRDSTV [TMEM178A, Q8NBL3], the pKd with RADIL, Q96JH8 (setting [1]) was 3.51; in the experiment with SNTG1, Q9NSN8 (setting [1]), 3.81; with MPP6, Q9NZW5 (setting [1]) it was 3.8; in the experiment with PDLIM1, O00151 (setting [1]), “below the threshold”; in the experiment with DVL3, Q92997 (setting [1]), “below the threshold”; with FRMPD2_3, Q68DX3 (setting [1]), “below the threshold”. Moreover, the pKd is 4.35 with DLG3_2, Q92796 (setting [1]); “below the threshold” with NHERF3_1, Q5T2W1 (setting [1]); 3.58 in the experiment with Inadl_5, Q8NI35 (setting [1]); “below the threshold” with HTRA4, P83105 (setting [1]); “below the threshold” with TIAM2, Q8IVF5 (setting [1]); 4.61 with DLG4_2, P78352 (setting [1]). Besides, the pKd result with Inadl_3, Q8NI35 (setting [1]) is “below the threshold”; with TJP1_3, Q07157 (setting [1]), 3.5; in the experiment with LNX2_3, Q8N448 (setting [1]), “below the threshold”; with SNTB1, Q13884 (setting [1]), 4.1; with ARHGAP21, Q5T5U3 (setting [1]), 4; in the experiment with PDZD2_2, O15018 (setting [1]) it was 4.32. The pKd with DLG1_2, Q12959 (setting [1]) is 4.64; with APBA2_2, Q99767 (setting [1]) it was “below the threshold”; in the experiment with RAPGEF6, Q8TEU7 (setting [1]), “below the threshold”; with LIMK2, P53671 (setting [1]) it was “below the threshold”.

Consider SAGADSETHC [SLCO1B1, Q9Y6L6], for which the pKd result in the experiment with RADIL, Q96JH8 (setting [1]) is “below the threshold”; in the experiment with SNTG1, Q9NSN8 (setting [1]), 3.66; with MPP6, Q9NZW5 (setting [1]), 3.58; with PDLIM1, O00151 (setting [1]), “below the threshold”; with DVL3, Q92997 (setting [1]), “below the threshold”; with FRMPD2_3, Q68DX3 (setting [1]), “below the threshold”. Also, the pKd result is “below the threshold” with DLG3_2, Q92796 (setting [1]); 3.68 in the experiment with NHERF3_1, Q5T2W1 (setting [1]); “below the threshold” in the experiment with Inadl_5, Q8NI35 (setting [1]); “below the threshold” in the experiment with HTRA4, P83105 (setting [1]); “below the threshold” with TIAM2, Q8IVF5 (setting [1]); “below the threshold” with DLG4_2, P78352 (setting [1]). For the same molecule, the negative-log Kd (pKd) entry with Inadl_3, Q8NI35 (setting [1]) was “below the threshold”; with TJP1_3, Q07157 (setting [1]), “below the threshold”; with LNX2_3, Q8N448 (setting [1]) it was “below the threshold”; with SNTB1, Q13884 (setting [1]) it was 3.87; with ARHGAP21, Q5T5U3 (setting [1]), 4.02; with PDZD2_2, O15018 (setting [1]), 3.68. For the same molecule, the pKd result in the experiment with DLG1_2, Q12959 (setting [1]) was “below the threshold”; with APBA2_2, Q99767 (setting [1]), “below the threshold”; with RAPGEF6, Q8TEU7 (setting [1]), “below the threshold”; with LIMK2, P53671 (setting [1]) it was “below the threshold”.

For SRSRRRETAL [HPV33-E6_-2P, P06427], the pKd entry in the experiment with RADIL, Q96JH8 (setting [2]) was “below the threshold”; in the experiment with SNTG1, Q9NSN8 (setting [2]), “below the threshold”; with MPP6, Q9NZW5 (setting [2]), 3.68; in the experiment with PDLIM1, O00151 (setting [2]), “below the threshold”; with DVL3, Q92997 (setting [2]) it was “below the threshold”; with FRMPD2_3, Q68DX3 (setting [2]), “below the threshold”. Further, the pKd entry with DLG3_2, Q92796 (setting [2]) was “below the threshold”; in the experiment with NHERF3_1, Q5T2W1 (setting [2]), “below the threshold”; with Inadl_5, Q8NI35 (setting [2]), “below the threshold”; in the experiment with HTRA4, P83105 (setting [2]), “below the threshold”; in the experiment with TIAM2, Q8IVF5 (setting [2]), “below the threshold”; with DLG4_2, P78352 (setting [2]) it was “below the threshold”. The negative-log Kd (pKd) result with Inadl_3, Q8NI35 (setting [2]) was “below the threshold”; in the experiment with TJP1_3, Q07157 (setting [2]) it was “below the threshold”; with LNX2_3, Q8N448 (setting [2]) it was “below the threshold”; with SNTB1, Q13884 (setting [2]), “below the threshold”; in the experiment with ARHGAP21, Q5T5U3 (setting [2]) it was 4.02; in the experiment with PDZD2_2, O15018 (setting [2]), “below the threshold”. Further, the pKd entry in the experiment with DLG1_2, Q12959 (setting [2]) is recorded as “below the threshold”; in the experiment with APBA2_2, Q99767 (setting [2]), “below the threshold”; in the experiment with RAPGEF6, Q8TEU7 (setting [2]), “below the threshold”; in the experiment with LIMK2, P53671 (setting [2]), “below the threshold”.
